Experimental data reported in PMC10786891, “Massively parallel profiling of RNA-targeting CRISPR-Cas13d”.

T1: EsCas13d, nuclease-dead (Eubacterium siraeum, UniProt B0MS50, R295A;H300A;R849A;H854A)
T1 sequence: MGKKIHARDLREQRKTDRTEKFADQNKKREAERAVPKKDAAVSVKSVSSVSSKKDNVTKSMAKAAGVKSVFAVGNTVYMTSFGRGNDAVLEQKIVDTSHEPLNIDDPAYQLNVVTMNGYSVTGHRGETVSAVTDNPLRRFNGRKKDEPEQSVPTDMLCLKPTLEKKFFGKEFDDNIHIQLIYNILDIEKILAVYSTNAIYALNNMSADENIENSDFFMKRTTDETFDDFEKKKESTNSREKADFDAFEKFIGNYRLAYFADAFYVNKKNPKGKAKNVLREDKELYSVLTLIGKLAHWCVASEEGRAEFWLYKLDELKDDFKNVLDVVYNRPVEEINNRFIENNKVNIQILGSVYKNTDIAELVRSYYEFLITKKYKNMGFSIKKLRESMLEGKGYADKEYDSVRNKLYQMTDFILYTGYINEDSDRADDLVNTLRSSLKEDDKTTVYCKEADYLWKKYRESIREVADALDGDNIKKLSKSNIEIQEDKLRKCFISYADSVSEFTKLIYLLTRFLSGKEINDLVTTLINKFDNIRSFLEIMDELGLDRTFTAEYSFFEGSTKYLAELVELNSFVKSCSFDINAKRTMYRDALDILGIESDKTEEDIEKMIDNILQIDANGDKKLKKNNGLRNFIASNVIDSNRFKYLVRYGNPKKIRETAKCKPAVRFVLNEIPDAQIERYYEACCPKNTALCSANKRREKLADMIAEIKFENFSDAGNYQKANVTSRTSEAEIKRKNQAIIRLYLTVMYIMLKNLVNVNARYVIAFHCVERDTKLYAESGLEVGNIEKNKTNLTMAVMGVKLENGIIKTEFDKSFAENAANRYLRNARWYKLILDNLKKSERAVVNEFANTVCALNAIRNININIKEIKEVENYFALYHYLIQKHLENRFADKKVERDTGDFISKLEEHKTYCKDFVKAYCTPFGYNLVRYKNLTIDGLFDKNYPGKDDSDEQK


Molecular target: T1, EsCas13d, nuclease-dead
Assay: crRNA (strand 1, pre-loaded); Mg2+; 40 mM Tris-HCl pH 7.5, 150 mM NaCl, 6 mM MgCl2, 1 mM DTT, 0.1% Tween-20, 0.2 mg/ml BSA; 25 C; 10 min per concentration, then washed
Details: tags: His6-TwinStrep-SUMO cleaved; N-terminal SNAP kept (SNAP-Surface 488); label: 3' end held by stalled T7 RNA polymerase

Binder	Kd
target 1 insC 3' of 10,insG 3' of 6 (mixed) RNA 1: CACCCGUGCAAAAAUGCAGGGGUCUAAAACUGAGCGGAUAACCUCUCUAUGG RNA 2: GGGAAUGGAUCCACAUCUACGAAUUCGUACCAUAGAGAGGUUCAUCCGGCUCACCGAGAUCGGAAGAGCACACGU	18.8 ± 2.1 nM
target 1 insA 3' of 17,insC 3' of 3 (mixed) RNA 1: CACCCGUGCAAAAAUGCAGGGGUCUAAAACUGAGCGGAUAACCUCUCUAUGG RNA 2: GGGAAUGGAUCCACAUCUACGAAUUCGUACCAUAGAAGAGGUUAUCCGCUCCACCGAGAUCGGAAGAGCACACGU	14.8 ± 1.1 nM
target 1 insG 3' of 21,insA 3' of 7 (mixed) RNA 1: CACCCGUGCAAAAAUGCAGGGGUCUAAAACUGAGCGGAUAACCUCUCUAUGG RNA 2: GGGAAUGGAUCCACAUCUACGAAUUCGUACCGAUAGAGAGGUUAUCACGCUCACCGAGAUCGGAAGAGCACACGU	46 ± 5 nM
target 1 C2A,G12C (mixed) RNA 1: CACCCGUGCAAAAAUGCAGGGGUCUAAAACUGAGCGGAUAACCUCUCUAUGG RNA 2: GGGAAUGGAUCCACAUCUACGAAUUCGUACCAUAGAGAGCUUAUCCGCUAACCGAGAUCGGAAGAGCACACGU	7.21 ± 0.25 nM
target 1 insC 3' of 8 (mixed) RNA 1: CACCCGUGCAAAAAUGCAGGGGUCUAAAACUGAGCGGAUAACCUCUCUAUGG RNA 2: GGGAAUGGAUCCACAUCUACGAAUUCGUACCAUAGAGAGGUUAUCCCGCUCACCGAGAUCGGAAGAGCACACGU	13.2 ± 0.7 nM
target 1 A1U,U11G (mixed) RNA 1: CACCCGUGCAAAAAUGCAGGGGUCUAAAACUGAGCGGAUAACCUCUCUAUGG RNA 2: GGGAAUGGAUCCACAUCUACGAAUUCGUACCAUAGAGAGGGUAUCCGCUCUCCGAGAUCGGAAGAGCACACGU	20.8 ± 0.9 nM
target 1 insU 3' of 22,insG 3' of 1 (mixed) RNA 1: CACCCGUGCAAAAAUGCAGGGGUCUAAAACUGAGCGGAUAACCUCUCUAUGG RNA 2: GGGAAUGGAUCCACAUCUACGAAUUCGUACUCAUAGAGAGGUUAUCCGCUCAGCCGAGAUCGGAAGAGCACACGU	35 ± 4 nM
target 1 insG 3' of 22,insA 3' of 3 (mixed) RNA 1: CACCCGUGCAAAAAUGCAGGGGUCUAAAACUGAGCGGAUAACCUCUCUAUGG RNA 2: GGGAAUGGAUCCACAUCUACGAAUUCGUACGCAUAGAGAGGUUAUCCGCUACACCGAGAUCGGAAGAGCACACGU	25.6 ± 2.3 nM
target 1 A14G,C21U (mixed) RNA 1: CACCCGUGCAAAAAUGCAGGGGUCUAAAACUGAGCGGAUAACCUCUCUAUGG RNA 2: GGGAAUGGAUCCACAUCUACGAAUUCGUACUAUAGAGGGGUUAUCCGCUCACCGAGAUCGGAAGAGCACACGU	6.9 ± 0.4 nM
target 1 insU 3' of 22,insC 3' of 1 (mixed) RNA 1: CACCCGUGCAAAAAUGCAGGGGUCUAAAACUGAGCGGAUAACCUCUCUAUGG RNA 2: GGGAAUGGAUCCACAUCUACGAAUUCGUACUCAUAGAGAGGUUAUCCGCUCACCCGAGAUCGGAAGAGCACACGU	29.1 ± 2.4 nM
target 1 del15,del17 (mixed) RNA 1: CACCCGUGCAAAAAUGCAGGGGUCUAAAACUGAGCGGAUAACCUCUCUAUGG RNA 2: GGGAAUGGAUCCACAUCUACGAAUUCGUACCAUAAAGGUUAUCCGCUCACCGAGAUCGGAAGAGCACACGU	90 ± 40 nM
target 1 insU 3' of 7,insA 3' of 5 (mixed) RNA 1: CACCCGUGCAAAAAUGCAGGGGUCUAAAACUGAGCGGAUAACCUCUCUAUGG RNA 2: GGGAAUGGAUCCACAUCUACGAAUUCGUACCAUAGAGAGGUUAUCUCGACUCACCGAGAUCGGAAGAGCACACGU	17.4 ± 1 nM
target 1 A9U,A18C (mixed) RNA 1: CACCCGUGCAAAAAUGCAGGGGUCUAAAACUGAGCGGAUAACCUCUCUAUGG RNA 2: GGGAAUGGAUCCACAUCUACGAAUUCGUACCAUCGAGAGGUUUUCCGCUCACCGAGAUCGGAAGAGCACACGU	60 ± 5 nM
target 1 insU 3' of 22,insU 3' of 1 (mixed) RNA 1: CACCCGUGCAAAAAUGCAGGGGUCUAAAACUGAGCGGAUAACCUCUCUAUGG RNA 2: GGGAAUGGAUCCACAUCUACGAAUUCGUACUCAUAGAGAGGUUAUCCGCUCAUCCGAGAUCGGAAGAGCACACGU	37 ± 6 nM
target 1 insU 3' of 12,insA 3' of 5 (mixed) RNA 1: CACCCGUGCAAAAAUGCAGGGGUCUAAAACUGAGCGGAUAACCUCUCUAUGG RNA 2: GGGAAUGGAUCCACAUCUACGAAUUCGUACCAUAGAGAGGUUUAUCCGACUCACCGAGAUCGGAAGAGCACACGU	4.32 ± 0.35 nM
target 1 insC 3' of 12,insA 3' of 8 (mixed) RNA 1: CACCCGUGCAAAAAUGCAGGGGUCUAAAACUGAGCGGAUAACCUCUCUAUGG RNA 2: GGGAAUGGAUCCACAUCUACGAAUUCGUACCAUAGAGAGGCUUAUACCGCUCACCGAGAUCGGAAGAGCACACGU	12 ± 0.9 nM
target 1 G5A,U10G (mixed) RNA 1: CACCCGUGCAAAAAUGCAGGGGUCUAAAACUGAGCGGAUAACCUCUCUAUGG RNA 2: GGGAAUGGAUCCACAUCUACGAAUUCGUACCAUAGAGAGGUGAUCCACUCACCGAGAUCGGAAGAGCACACGU	35 ± 4 nM
target 1 U3G,G13C (mixed) RNA 1: CACCCGUGCAAAAAUGCAGGGGUCUAAAACUGAGCGGAUAACCUCUCUAUGG RNA 2: GGGAAUGGAUCCACAUCUACGAAUUCGUACCAUAGAGACGUUAUCCGCGCACCGAGAUCGGAAGAGCACACGU	30.3 ± 2.3 nM
target 1 G13U,A14U (mixed) RNA 1: CACCCGUGCAAAAAUGCAGGGGUCUAAAACUGAGCGGAUAACCUCUCUAUGG RNA 2: GGGAAUGGAUCCACAUCUACGAAUUCGUACCAUAGAGUUGUUAUCCGCUCACCGAGAUCGGAAGAGCACACGU	8.2 ± 0.4 nM
target 1 U3G,A9C (mixed) RNA 1: CACCCGUGCAAAAAUGCAGGGGUCUAAAACUGAGCGGAUAACCUCUCUAUGG RNA 2: GGGAAUGGAUCCACAUCUACGAAUUCGUACCAUAGAGAGGUUCUCCGCGCACCGAGAUCGGAAGAGCACACGU	9.4 ± 0.7 nM
target 1 insU 3' of 22,insA 3' of 2 (mixed) RNA 1: CACCCGUGCAAAAAUGCAGGGGUCUAAAACUGAGCGGAUAACCUCUCUAUGG RNA 2: GGGAAUGGAUCCACAUCUACGAAUUCGUACUCAUAGAGAGGUUAUCCGCUCAACCGAGAUCGGAAGAGCACACGU	33.5 ± 2.8 nM
target 1 G5U,A14C (mixed) RNA 1: CACCCGUGCAAAAAUGCAGGGGUCUAAAACUGAGCGGAUAACCUCUCUAUGG RNA 2: GGGAAUGGAUCCACAUCUACGAAUUCGUACCAUAGAGCGGUUAUCCUCUCACCGAGAUCGGAAGAGCACACGU	20.7 ± 1.5 nM
target 1 insA 3' of 21,insC 3' of 9 (mixed) RNA 1: CACCCGUGCAAAAAUGCAGGGGUCUAAAACUGAGCGGAUAACCUCUCUAUGG RNA 2: GGGAAUGGAUCCACAUCUACGAAUUCGUACCAAUAGAGAGGUUACUCCGCUCACCGAGAUCGGAAGAGCACACGU	31.5 ± 2 nM
target 1 insC 3' of 17,insC 3' of 3 (mixed) RNA 1: CACCCGUGCAAAAAUGCAGGGGUCUAAAACUGAGCGGAUAACCUCUCUAUGG RNA 2: GGGAAUGGAUCCACAUCUACGAAUUCGUACCAUAGCAGAGGUUAUCCGCUCCACCGAGAUCGGAAGAGCACACGU	60 ± 13 nM
target 1 insU 3' of 14,insC 3' of 3 (mixed) RNA 1: CACCCGUGCAAAAAUGCAGGGGUCUAAAACUGAGCGGAUAACCUCUCUAUGG RNA 2: GGGAAUGGAUCCACAUCUACGAAUUCGUACCAUAGAGAUGGUUAUCCGCUCCACCGAGAUCGGAAGAGCACACGU	80 ± 40 nM
target 1 G5C,G13U (mixed) RNA 1: CACCCGUGCAAAAAUGCAGGGGUCUAAAACUGAGCGGAUAACCUCUCUAUGG RNA 2: GGGAAUGGAUCCACAUCUACGAAUUCGUACCAUAGAGAUGUUAUCCCCUCACCGAGAUCGGAAGAGCACACGU	40 ± 9 nM
target 1 C4G,U10A (mixed) RNA 1: CACCCGUGCAAAAAUGCAGGGGUCUAAAACUGAGCGGAUAACCUCUCUAUGG RNA 2: GGGAAUGGAUCCACAUCUACGAAUUCGUACCAUAGAGAGGUAAUCCGGUCACCGAGAUCGGAAGAGCACACGU	4.87 ± 0.25 nM
target 1 G15U,G17C (mixed) RNA 1: CACCCGUGCAAAAAUGCAGGGGUCUAAAACUGAGCGGAUAACCUCUCUAUGG RNA 2: GGGAAUGGAUCCACAUCUACGAAUUCGUACCAUACAUAGGUUAUCCGCUCACCGAGAUCGGAAGAGCACACGU	34.6 ± 3 nM
